Data from patent US20200317739.

What was measured:
[1] = tested on: truncated FBP1^185-443 protein
[2] = tested on: truncated FBP1^1-371 protein
[3] = tested on: truncated FBP1^185-644 protein
[4] = tested on: truncated FBP1^372-644 protein
[5] = tested on: truncated FBP1^1-443 protein

Substance: purified recombinant EV71 viral protease wild-type 2A^pro
- in vitro proteinase cleavage assay (10 ug 2A^pro, 37 C, 4 hours) (FBP1-G366K): in comparison with FBP1-G364K, FBP1-G366K, FBP1-G374K and FBP1-G375K, FBP1-G371K could not be cleaved by 2A^pro
- in vitro proteinase cleavage assay (10 ug 2A^pro, 37 C, 4 hours) (FBP1-G371K): FBP1-G371K could not be cleaved by 2A^pro, as shown by the absence of Cp-N and Cp-C cleavage products
- in vitro proteinase cleavage assay (10 ug 2A^pro, 37 C, 4 hours) (FBP1-G375K): in comparison with FBP1-G364K, FBP1-G366K, FBP1-G374K and FBP1-G375K, FBP1-G371K could not be cleaved by 2A^pro
- in vitro proteinase cleavage assay (10 ug 2A^pro, 37 C, 4 hours) (FBP1-G364K): in comparison with FBP1-G364K, FBP1-G366K, FBP1-G374K and FBP1-G375K, FBP1-G371K could not be cleaved by 2A^pro
- in vitro proteinase cleavage assay of truncated FBP1 proteins [1]: FBP1^1-443, FBP1^185-644 and FBP1^185-443 containing the Gly-371 cleavage site were cleaved by 2A^pro; 19-kDa cleavage product
- in vitro proteinase cleavage assay (10 ug 2A^pro, 37 C, 4 hours) (FBP1-G364-380K): but not on mutant FBP1-G364-380K
- in vitro proteinase cleavage assay (10 ug 2A^pro, 37 C, 4 hours) (FBP1-G345-362K): in vitro 2A^pro cleavage occurs on mutant FBP1-G345-362K
- in vitro proteinase cleavage assay of truncated FBP1 proteins [2]: both truncated FBP1^1-371 and FBP1^372-644 proteins were not cleaved by 2A^pro
- in vitro proteinase cleavage assay of truncated FBP1 proteins [3]: FBP1^1-443, FBP1^185-644 and FBP1^185-443 containing the Gly-371 cleavage site were cleaved by 2A^pro; 19-kDa cleavage product, and FBP1^185-644 also yielded a 33-kDa product
- in vitro proteinase cleavage assay (10 ug 2A^pro, 37 C, 4 hours) (FBP1-G374K): in comparison with FBP1-G364K, FBP1-G366K, FBP1-G374K and FBP1-G375K, FBP1-G371K could not be cleaved by 2A^pro
- in vitro proteinase cleavage kinetics of [35S] methionine-labeled FBP1 (data not shown) (wild-type FBP1 protein): Cp-N and Cp-C were detected after 15 minutes of incubation with 2A^pro, and the levels of Cp-N and Cp-C increased over the 4 hours of incubation
- in vitro proteinase cleavage of [35S] methionine-labeled FBP1 (SDS-PAGE, autoradiography) (wild-type FBP1 protein): FBP1 was cleaved by 2A^pro in a dose-dependent manner that resulted in two major Cps, a 38-kDa Cp designated as Cp-N, and a 33-kDa Cp designated as Cp-C
- in vitro proteinase cleavage assay of truncated FBP1 proteins [4]: both truncated FBP1^1-371 and FBP1^372-644 proteins were not cleaved by 2A^pro
- in vitro proteinase cleavage assay of truncated FBP1 proteins [5]: FBP1^1-443, FBP1^185-644 and FBP1^185-443 containing the Gly-371 cleavage site were cleaved by 2A^pro; a 38-kDa cleavage product was yielded from FBP1^1-443
